Positions count from the first letter of the chain named.

Among the data in US20160289285A1 (Molecular Partners, published 2016) are binding result, Kd and IC50 values, retold here.

To fix the notation:
B1: Protein #37 (designed binder)
chain: MRGSHHHHHHGSDLGKKLLEAARAGQDDEVRILMANGADVNASDDTGLTPLHLAANRGHLEIVEVLLKHGADVNANDFAGMTPLHLAANVGHLEIVEVLLKYGADVNAHDDYGLTPLHLAANWRHLEIVEVLLKNGADVNAQDKFGKTAFDISIDNGNEDLAEILQKAA
B2: Protein #26 (designed binder)
chain: MRGSHHHHHHGSDLGKKLLEAARAGQDDEVRILLKAGADVNAKDRYGDTPLHLAADIGHLEIVEVLLKAGADVNAEDYFGNTPLHLAASYGHLEIVEVLLKAGADVNAKDDYGNTPLHLAANTGHLEIVEVLLKAGADVNAQDKSGKTPADLAADAGHEDIAEVLQKAA
B3: Protein #23 (designed binder)
chain: MRGSHHHHHHGSDLGKKLLEAARAGQDDEVRILMANGADVNAKDRFGDTPLHLAADIGHLKIVEVLLKHGADVNAEDWFGNTPLHLAASMGHLEIVEVLLKYGADVNAMDDYGNTPLHLAANTGHLEIVEVLLKHGADVNAQDKFGKTAFDISIDNGNEDLAEILQKAA
B4: Protein #28 (designed binder)
chain: MRGSHHHHHHGSDLGMKLLEAARAGQDDEVRILMANGADVNAHDTWGLTPLHLAAFHGHQEIVEVLLKHGADVNAQDFYGKTPLHLAALRGHLEIVEVLLKYGADVNAQDQFGKTAFDISIDNGNEDLAEILQKAA
B5: Protein #12 (designed binder)
chain: MRGSHHHHHHGSDLGKKLLEAARAGQDDEVRILMANGADVNAFDWMGWTPLHLAAHEGHLEIVEVLLKNGADVNATDVSGYTPLHLAAADGHLEIVEVLLKHGADVNTKDNTGWTPLHLSADLGHLEIVEVLLKNGADVNAQDKFGKTAFDISIDNGNEDLAEILQKAA
B6: Protein #13 (designed binder)
chain: MRGSHHHHHHGSDLDKKLLEAARAGQDDEVRILLKAGADVNAKDYLGWTPLHLAAHEGHLEIVEVLLKAGADVNAKDVSGYTPLHLAAADGHLEIVEVLLKAGADVNAKDNTGWTPLHLSADLGHLEIVEVLLKAGADVNAQDKFGKTAFDISIDNGNEDLAEILQKAA
B7: Protein #14 (designed binder)
chain: MRGSHHHHHHGSDLGKKLLEAARAGQDDEVRILMANGADVNTADSTGWTPLHLAAPWGHPEIVEVLLKNGADVNAHDYQGWTPLHLAATLGHLEIVEVLLKHGADVNAQDKFGKTAFDISIDNGNEDLAEILQKAA
B8: Protein #22 (designed binder)
chain: B7 chain with G15D, T42A, A43K, P60L, N69A, H76K, Y78F, T89A, L90V, H102A
B9: Protein #17 (designed binder)
chain: B7 chain with T42A, A43R, H76A, Y78F, T89A, L90V
B10: Protein #15 (designed binder)
chain: B7 chain with A55V, P60L, N69Y, H76K, Y78F, T89A, L90I, L93Q, H102N
B11: Protein #16 (designed binder)
chain: MRGSHHHHHHGSDLDKKLLEAARAGQDDEVRILMANGADVNAKDSTGYTPLHLAAPWGHLEIVEVLLKAGADVNAKDYQGWTPLHLAAAVGHLEIVEVLLKAGADVNAQDKSGKTPADLAADAGHEDIAEVLQKAA
B12: Protein #21 (designed binder)
chain: B11 chain with M34L, A35K, N36A, Y48W, L60P
B13: Protein #97 (designed binder)
chain: MRGSHHHHHHGSDLGKKLLEAARAGQDDEVRILMANGADVNAKDYFSHTPLHLAARNGHLKIVEVLLKAGADVNAKDFAGKTPLHLAANDGHLEIVEVLLKHGADVNAQDIFGKTPADIAADAGHEDIAEVLQKLGSPTPTPTTPTPTPTTPTPTPTGSRSDLGKKLLEAARAGQDDEVRILLKAGADVNAKDRYGDTPLHLAADAGHLKIVEVLLKAGADVNAEDYFGNTPLHLAASAGHLEIVEVLLKAGADVNAKDDAGNTPLHLAANTGHLKIVEVLLKAGADVNAQDKSGKTPADLAADAGHEDIAEVLQKLGSPTPTPTTPTPTPTTPTPTPTGSRSDLDKKLLEAARAGQDDEVRILLKAGADVNAKDYLGWTPLHLAAHEGHLEIVEVLLKAGADVNAKDVSGYTPLHLAAADGHLEIVEVLLKAGADVNAKDNTGWTPLHLSADLGHLEIVEVLLKAGADVNAQDKFGKTAFDISIDNGNEDLAEILQKLGSPTPTPTTPTPTPTTPTPTPTGSRSDLGKKLLEAARAGQDDEVRILMANGADVNAKDYFSHTPLHLAARNGHLKIVEVLLKAGADVNAKDFAGKTPLHLAANDGHLEIVEVLLKHGADVNAQDIFGKTPADIAADAGHEDIAEVLQKLN
B14: Protein #109 (designed binder)
chain: MRGSHHHHHHGSDLGKKLLEAARAGQDDEVRILMANGADVNAKDYFSHTPLHLAARNGHLKIVEVLLKAGADVNAKDFAGKTPLHLAANDGHLEIVEVLLKHGADVNAQDIFGKTPADIAADAGHEDIAEVLQKLGSPTPTPTTPTPTPTTPTPTPTGSRSDLGKKLLEAARAGQDDEVRILMANGADVNAKDYFSHTPLHLAARNGHLKIVEVLLKAGADVNAKDFAGKTPLHLAANDGHLEIVEVLLKHGADVNAQDIFGKTPADIAADAGHEDIAEVLQKLGSPTPTPTTPTPTPTTPTPTPTGSRSDLGKKLLEAARAGQDDEVRILMANGADVNAKDKDGYTPLHLAAREGHLEIVEVLLKAGADVNAKDKDGYTPLHLAAREGHLEIVEVLLKAGADVNAQDKFGKTAFDISIDNGNEDLAEILQKLGSPTPTPTTPTPTPTTPTPTPTGSRSDLGKKLLEAARAGQDDEVRILMANGADVNAKDKDGYTPLHLAAREGHLEIVEVLLKAGADVNAKDKDGYTPLHLAAREGHLEIVEVLLKAGADVNAQDKFGKTAFDISIDNGNEDLAEILQKLN
B15: Protein #102 (designed binder)
chain: MRGSHHHHHHGSDLGKKLLEAARAGQDDEVRELLKAGADVNAKDYFSHTPLHLAARNGHLKIVEVLLKAGADVNAKDFAGKTPLHLAANDGHLEIVEVLLKAGADVNAQDIFGKTPADIAADAGHEDIAEVLQKAAGSPTPTPTTPTPTPTTPTPTPTGSDLGKKLLEAARAGQDDEVRILLKAGADVNAKDRYGDTPLHLAADIGHLEIVEVLLKAGADVNAEDYFGNTPLHLAASYGHLEIVEVLLKAGADVNAKDDYGNTPLHLAANTGHLEIVEVLLKAGADVNAQDKSGKTPADLAADAGHEDIAEVLQKAAGSPTPTPTTPTPTPTTPTPTPTGSDLDKKLLEAARAGQDDEVRILLKAGADVNAKDSTGWTPLHLAAPWGHPEIVEVLLKAGADVNAKDFQGWTPLHLAAAVGHLEIVEVLLKAGADVNAQDKSGKTPADLAADAGHEDIAEVLQKAAGSPTPTPTTPTPTPTTPTPTPTGSDLGKKLLEAARAGQDDEVRELLKAGADVNAKDYFSHTPLHLAARNGHLKIVEVLLKAGADVNAKDFAGKTPLHLAANDGHLEIVEVLLKAGADVNAQDIFGKTPADIAADAGHEDIAEVLQKAA
B16: Protein #110 (designed binder)
chain: MRGSHHHHHHGSDLGKKLLEAARAGQDDEVRELLKAGADVNAKDYFSHTPLHLAARNGHLKIVEVLLKAGADVNAKDFAGKTPLHLAANEGHLEIVEVLLKAGADVNAQDIFGKTPADIAADAGHEDIAEVLQKAAGSPTPTPTTPTPTPTTPTPTPTGSDLGKKLLEAARAGQDDEVRELLKAGADVNAKDKSGNTPLHLAARFGHLEIVEFLLKAGADVNAKDETGKTPLHLAAIWGHLEIVEVLLKAGADVNAKDLYGRTPLHLAAKLRHLEIVEVLLKAGADVNAQDKFGKTAFDISIDNGNEDLAEILQKAAGSPTPTPTTPTPTPTTPTPTPTGSDLDKKLLEAARAGQDDEVRELLKAGADVNALDQIGWTPLHLAANYGHLEIVEVLLKAGADVNAKDLWGQTPLHLAAWKGHLEIVEVLLKAGADVNAKDTDGLTPLHLAAIRGHLEIVEVLLKAGADVNAQDKSGKTPADLAADAGHEDIAEVLQKAAGSPTPTPTTPTPTPTTPTPTPTGSDLGKKLLEAARAGQDDEVRELLKAGADVNAKDYFSHTPLHLAARNGHLKIVEVLLKAGADVNAKDFAGKTPLHLAANEGHLEIVEVLLKAGADVNAQDIFGKTPADIAADAGHEDIAEVLQKAA

The target of the first experiment is T1, human HGF (human, UniProt P14210 32-728).
T1 construct: also called hepatocyte growth factor
T1 sequence (P14210 32-728 limits assumed): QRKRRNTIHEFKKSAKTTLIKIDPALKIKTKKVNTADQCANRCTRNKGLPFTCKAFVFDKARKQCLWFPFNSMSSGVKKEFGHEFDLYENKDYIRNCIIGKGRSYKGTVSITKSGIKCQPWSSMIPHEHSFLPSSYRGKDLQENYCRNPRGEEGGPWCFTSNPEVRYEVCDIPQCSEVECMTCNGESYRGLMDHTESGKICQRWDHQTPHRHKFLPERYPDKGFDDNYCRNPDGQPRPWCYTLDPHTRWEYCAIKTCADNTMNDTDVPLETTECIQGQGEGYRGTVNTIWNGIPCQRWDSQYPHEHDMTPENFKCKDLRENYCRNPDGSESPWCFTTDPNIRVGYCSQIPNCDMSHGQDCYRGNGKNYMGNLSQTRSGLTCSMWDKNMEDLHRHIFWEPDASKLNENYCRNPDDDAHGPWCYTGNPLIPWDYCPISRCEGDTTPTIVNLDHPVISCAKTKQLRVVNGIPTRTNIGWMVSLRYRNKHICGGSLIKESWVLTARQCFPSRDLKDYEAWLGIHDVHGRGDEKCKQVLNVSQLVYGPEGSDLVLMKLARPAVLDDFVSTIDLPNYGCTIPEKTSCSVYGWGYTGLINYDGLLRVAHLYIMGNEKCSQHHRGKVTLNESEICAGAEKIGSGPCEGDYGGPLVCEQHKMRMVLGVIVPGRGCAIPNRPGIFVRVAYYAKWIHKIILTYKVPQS
The experiment is described as follows: SPR (ProteOn). The procedure: (§1) SPR was measured using a ProteOn instrument (BioRad) and measurement was performed according standard procedures known to the person skilled in the art.
Regarding B1, the binding result is “binds”. For orientation: Kd means the constant that tells how readily two partners part at equilibrium. B2 yielded a Kd of 0.051 nM. In turn, B3 had a Kd of 0.016 nM. Still for that read-out and setting: to B4 belongs 0.026 nM.

The target in another experiment is T2, human VEGF-A (human, UniProt P15692-4 27-191, limits assumed).
T2 construct: Recombinant, bought or produced in CHO or Pichia pastoris; also called hVEGF-A
T2 sequence (P15692 other isoform, or with tags, fused parts or gaps limits assumed): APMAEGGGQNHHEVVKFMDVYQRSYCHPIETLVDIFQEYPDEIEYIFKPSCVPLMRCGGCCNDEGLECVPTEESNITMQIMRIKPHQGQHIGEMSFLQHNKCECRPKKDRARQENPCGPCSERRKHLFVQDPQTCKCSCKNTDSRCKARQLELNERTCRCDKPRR
The experiment is described as follows: SPR (ProteOn). The procedure: as §1
In the case of B5, the Kd was determined as 0.094 nM. On the same count and under the same terms, for B6 the value was 0.096 nM.

On to B7, for which the binding result is “binds”. For B8, the binding result is reported as “binds”. Same read-out and setting: to B9 belongs “binds”; to B10, “binds”. Take B11: the Kd is 0.141 nM. B12: the binding result is “binds”.

In the next experiment the target is T3, human serum albumin (human, UniProt P02768 25-609).
T3 construct: For SEC-MALS purified from CSL Behring 20% solution; also called HSA; SA (human)
T3 sequence (P02768 25-609 limits assumed): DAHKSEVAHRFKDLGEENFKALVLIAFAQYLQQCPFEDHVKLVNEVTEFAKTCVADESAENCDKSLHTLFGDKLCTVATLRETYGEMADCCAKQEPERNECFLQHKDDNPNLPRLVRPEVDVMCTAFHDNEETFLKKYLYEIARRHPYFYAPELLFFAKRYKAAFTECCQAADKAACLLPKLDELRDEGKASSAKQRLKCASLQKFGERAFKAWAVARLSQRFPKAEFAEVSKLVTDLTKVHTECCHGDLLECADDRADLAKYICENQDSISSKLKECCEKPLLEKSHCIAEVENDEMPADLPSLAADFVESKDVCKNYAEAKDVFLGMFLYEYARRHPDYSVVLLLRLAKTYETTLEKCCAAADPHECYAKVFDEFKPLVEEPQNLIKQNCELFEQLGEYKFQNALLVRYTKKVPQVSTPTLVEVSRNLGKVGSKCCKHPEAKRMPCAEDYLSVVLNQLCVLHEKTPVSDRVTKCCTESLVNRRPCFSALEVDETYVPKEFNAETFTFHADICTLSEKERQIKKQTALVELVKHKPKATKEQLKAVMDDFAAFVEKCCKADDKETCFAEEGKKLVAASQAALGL
Briefly: size exclusion chromatography coupled to static light scattering. (SEC sorts molecules by how far they enter the pores of the column.)
As for B13, the binding result is listed as “binds”. In the case of B14, the binding result is “binds”. Take B15: the binding result is “binds”.

As for B16, the binding result was “binds”.

A further experiment concerns the target T1, human HGF. The experiment is described as follows: cMet receptor competition ELISA; 5 nM human HGF, immobilised human cMet. The source says: Such assays are well known to the person skilled in the art. For designed ankyrin repeat domains with binding specificity to VEGF-A, a quantitative sandwich enzyme immunoassay technique was used according to the manufacturer (VEGF-A Quantikine kit DVE00, R&D Systems). A monoclonal antibody specific for VEGF-A was pre-coated onto a microplate. VEGF-A standards and mixtures of VEGF-A (20 pM) and Protein #18, #19, or #20 at varying concentrations were applied to the wells and any free VEGF-A present (i.e. not bound to the designed ankyrin repeat domain) is bound by the immobilized antibody. After washing away any unbound substances, an enzyme-linked polyclonal antibody specific for VEGF-A is added to the wells. Following a wash to remove any unbound antibody-enzyme reagent, a substrate solution is added to the wells and color develops in proportion to the amount of VEGF-A bound in the initial step. The color development is stopped and the intensity of the color is measured. […] IC₅₀ values were calculated from such titration curves obtained as described above using Graph Pad Prism software and standard procedures known to the person skilled in the art. For designed ankyrin repeat domains with binding specificity to HGF, a cMet receptor competition assay was performed. For that purpose, 5 nM of human cMet receptor in PBS were immobilized on Maxisorp plates overnight at 4° C. After washing with PBS 0.05% TWEEN 20, the plate was blocked for 2 h with shaking at 300 rpm using PBS containing 0.05% TWEEN 20 and 0.25% Casein at RT. A constant concentration of 5 nM human HGF was pre-incubated for 30 min at RT with a 1000 nM-1 pM of Proteins #23, #26, #28, and #29 (1:4 dilution series each) on a dilution plate in PBS 0.05% TWEEN 20. After washing of the ELISA plate with PBS 0.05% TWEEN, pre-incubated samples were transferred to the ELISA plate and plate was incubated for 2 h at RT with shaking at 300 rpm. After washing with PBS 0.25% TWEEN, 200 ng/ml anti human HGF antibody was added for 1 h at RT with shaking at 300 rpm. After washing with PBS 0.05% TWEEN, 100 ng/ml HRP conjugated polyclonal anti HGF species antibody was added for 30 min at RT with shaking at 300 rpm. Detection was using 1:3 diluted BM blue POD (Roche).
(An ELISA detects its analyte on a solid surface through an enzyme-linked reagent.)
As a reminder, the IC50 is the midpoint of a concentration-inhibition curve. B2 yielded an IC50 of 0.623 nM. B3 displayed an IC50 of 0.915 nM. In turn, B4 came in with an IC50 of 0.955 nM.
